Patent US20110118131A1 (published 2011)
Residue numbers refer to the chain shown, from its start. Names and notes keep the numbering of the source. Values joined by “and” are separate entries in the source; they are usually repeats but may differ in a detail not shown here. Equal values may be shown once.

B1: XPA23 heavy chain V50P (Fab, V domains shown)
VH: EVQLLESGGGLVQPGGSLRLSCAASGFTFSKYFMFWVRQAPGKGLEWVSPISPSGGMTRYADSVKGRFTISRDNSKNTLYLQMNSLRAEDTAVYYCARVGYGGNSDYWGQGTLVTVSS
VL: DIQMTQSPSSVSASVGDRLTIICRASQDINRWLAWYQQTPGNAPKLLIHSATSLQSGVPSRFSGSGSGTDFTLTINSLQPEDFATYYCQQADSFPLTFGGGTKVEIK
notes: Fab, periplasmic extract; also called C5A V50P
B2: XPA23 (IL-1 antibody) (antibody, V domains shown)
VH: B1 VH with P50V
VL: B1 VL
notes: also called cA5; C5A
B3: XPA23 heavy chain V99P (Fab, V domains shown)
VH: B1 VH with P50V, V99P
VL: B1 VL
notes: Fab, periplasmic extract; also called C5A V99P
B4: XPA23 heavy chain Y101G (Fab, V domains shown)
VH: B1 VH with P50V, Y101G
VL: B1 VL
notes: Fab, periplasmic extract; also called C5A Y101G
B5: XPA23 heavy chain V99L (Fab, V domains shown)
VH: B1 VH with P50V, V99L
VL: B1 VL
notes: Fab, periplasmic extract; also called C5A V99L
B6: modified XPA23 Y208L mutant (antibody, V domains shown)
VH: B1 VH with P50V, Y101L
VL: B1 VL
B7: XPA23 heavy chain Y32A (Fab, V domains shown)
VH: B1 VH with Y32A, P50V
VL: B1 VL
notes: Fab, periplasmic extract; also called C5A Y32A
B8: modified ING-1 IgG with a 102G substitution (antibody, V domains shown)
VH: QIQLVQSGPELKKPGETVKISCKASGYTFTKYGMNWVKQAPGKGLKWMGWINTYTEEPTYGDDFKGRFAFSLETSASTANLQINNLKSEDTATYFCARFGSGVDYWGQGTSVTVSS
VL: QIVMTQAAFSNPVTLGTSGSISCRSSKSLLHSNGITYLYWYLQKPGQSPQLLIYQMSNLASGVPDRFSSSGSGTDFTLRISRVEAEDVGVYYCAQNLELPRTFGGGTKLEMKR
B9: modified ING-1 IgG with an A102F substitution (antibody, V domains shown)
VH: B8 VH with G102F
VL: B8 VL

Key:
biotinylated Ep-Cam = biotinylated Ep-Cam (UniProt P16422); assay: DELFIA competition, negative control well, biotinylated Ep-Cam, plate-coated parental ING-1 IgG as competitor
IL-1β [1] = target: T1, IL-1β (UniProt P01584 117-269); assay: Biacore, Fab periplasmic extract; -1 = no binding by the table's footnote
T1 construct: Antigen of XPA23

IL-1β [2] = target: IL-1β (UniProt P01584 117-269); assay: Biacore kinetic titration, IL-1β amine coupled to CM5 chip, 25 C
Description: In an exemplary method, an antigen such as IL-1β is amine coupled to a CM5 sensor chip. Each sample (e.g., from lowest to highest concentration) may be injected for 240 seconds at a flow rate of 30 µl/min at a selected temperature (e.g., 25° C.). Sample are allowed to dissociate for 30 seconds except the highest concentration which may be permitted 300 seconds to dissociate. The assay is run at 25° C.
Biaevaluation software (e.g., Biacore 2000 evaluation software) is used to calculate dissociation rates of individual samples and the relative amount of sample bound to each test surface. The data is fit to an appropriate kinetic model (e.g., the kinetic titration model).

Ep-CAM [3] = target: T2, Ep-CAM (UniProt P16422 24-265); assay: Biacore SPR; Fig. 15C
T2 chain: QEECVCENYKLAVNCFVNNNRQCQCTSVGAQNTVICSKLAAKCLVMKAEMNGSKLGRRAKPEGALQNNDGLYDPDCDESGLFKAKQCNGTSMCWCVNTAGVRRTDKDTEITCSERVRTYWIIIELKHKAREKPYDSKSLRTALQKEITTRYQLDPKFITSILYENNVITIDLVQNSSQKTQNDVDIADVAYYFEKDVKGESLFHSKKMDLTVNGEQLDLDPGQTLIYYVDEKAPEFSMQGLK

Ep-CAM [4] = target: T2, Ep-CAM; assay: Biacore SPR; Fig. 15B

| Molecule | binding result (IL-1β [1]) | also measured |
| --- | --- | --- |
| negative control (wells E12-H12) |  | Percentage of inhibition (biotinylated Ep-Cam): -0.4% and 0.1% and 0.3% |
| B1 | no binding |  |
| B2 |  | Kd (IL-1β [2]): 46 nM |
| B3 | no binding |  |
| B4 | no binding |  |
| B5 | no binding |  |
| B6 |  | Kd (IL-1β [2]): 16.2 nM |
| B7 | no binding |  |
| B8 |  | Kd (Ep-CAM [3]): 0.6 nM |
| B9 |  | Kd (Ep-CAM [4]): 0.9 nM |
